Test results published in IntAct's records for PubMed 14992724.

B1: Meiosis-specific protein SPO11 (Saccharomyces cerevisiae), P23179 (parent)
chain: MALEGLRKKYKTRQELVKALTPKRRSIHLNSNGHSNGTPCSNADVLAHIKHFLSLAANSLEQHQQPISIVFQNKKKKGDTSSPDIHTTLDFPLNGPHLCTHQFKLKRCAILLNLLKVVMEKLPLGKNTTVRDIFYSNVELFQRQANVVQWLDVIRFNFKLSPRKSLNIIPAQKGLVYSPFPIDIYDNILTCENEPKMQKQTIFPGKPCLIPFFQDDAVIKLGTTSMCNIVIVEKEAVFTKLVNNYHKLSTNTMLITGKGFPDFLTRLFLKKLEQYCSKLISDCSIFTDADPYGISIALNYTHSNERNAYICTMANYKGIRITQVLAQNNEVHNKSIQLLSLNQRDYSLAKNLIASLTANSWDIATSPLKNVIIECQREIFFQKKAEMNEIDARIFEYK
partner: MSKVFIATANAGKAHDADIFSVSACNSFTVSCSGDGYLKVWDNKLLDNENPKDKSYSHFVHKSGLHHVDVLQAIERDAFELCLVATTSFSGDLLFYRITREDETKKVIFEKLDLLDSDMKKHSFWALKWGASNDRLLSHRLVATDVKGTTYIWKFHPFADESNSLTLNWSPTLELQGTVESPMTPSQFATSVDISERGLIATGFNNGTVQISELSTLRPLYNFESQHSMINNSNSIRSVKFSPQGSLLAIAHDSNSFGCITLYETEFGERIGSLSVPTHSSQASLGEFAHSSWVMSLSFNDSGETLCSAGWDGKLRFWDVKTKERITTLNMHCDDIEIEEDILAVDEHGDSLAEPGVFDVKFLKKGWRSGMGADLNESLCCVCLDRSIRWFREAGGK

Variants of: B1
Details: with ski8_yeast SKI8, Q02793

| Variant | effect of a mutation on the interaction |
| --- | --- |
| Q376A | disrupting interaction strength |
| R377A;E378A | disrupting interaction strength |
